The supplement of paper PMC9112550, “Optimization of the antimicrobial peptide Bac7 by deep mutational scanning” (BMC Biology, 2022)

test system: Escherichia coli TOP10; test: shrunken log2 fold change of peptide-encoding DNA abundance (4.5 h post-induction vs induction); higher = less antimicrobial activity (less host growth inhibition); settings: time post-induction: 4.5 h; library: site-saturation at positions 5, 18, 19, 20
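Further: peptides expressed intracellularly from a pBAD plasmid library in pooled LB shake-flask culture, induced with 0.3% L-arabinose, DNA abundance read by NGS, three biological replicates, DESeq2 with apeglm shrinkage.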

Sequence | shrunken log2 fold change
RRIRTRPPRLPRPRPRPETFPRP | -0.4
RRIRIRPPRLPRPRPRPISMPRP | 0.0215
RRIRWRPPRLPRPRPRPWPQPRP | 0.273
RRIRIRPPRLPRPRPRPSRYPRP | -0.759
RRIRIRPPRLPRPRPRPTLFPRP | -0.131
RRIRRRPPRLPRPRPRPVNEPRP | 0.196
RRIRWRPPRLPRPRPRPHQWPRP | -0.0271
RRIRNRPPRLPRPRPRPGVIPRP | 0.208
RRIRYRPPRLPRPRPRPWNAPRP | -0.397
RRIRNRPPRLPRPRPRPRRCPRP | 0.291
RRIRFRPPRLPRPRPRPQSFPRP | 0.00824
RRIRGRPPRLPRPRPRPFTKPRP | -0.282
RRIRPRPPRLPRPRPRPMCKPRP | -0.274
RRIRYRPPRLPRPRPRPAMNPRP | -0.796
RRIRFRPPRLPRPRPRPDCWPRP | -0.0344
RRIRRRPPRLPRPRPRPIVAPRP | 0.174
RRIRFRPPRLPRPRPRPMTEPRP | -0.0907
RRIRGRPPRLPRPRPRPTGMPRP | 0.851
RRIRKRPPRLPRPRPRPHNYPRP | -0.0761
RRIRLRPPRLPRPRPRPWKNPRP | -0.114
RRIRARPPRLPRPRPRPKYNPRP | -0.411
RRIRNRPPRLPRPRPRPESAPRP | -0.0184
RRIRMRPPRLPRPRPRPDWAPRP | 0.469
RRIRERPPRLPRPRPRPRPYPRP | -0.0326
RRIRDRPPRLPRPRPRPTATPRP | 2.57

Sequence | shrunken log2 fold change
RRIRKRPPRLPRPRPRPAEDPRP | 1.33
RRIRERPPRLPRPRPRPFMFPRP | -0.531
RRIRCRPPRLPRPRPRPNAIPRP | 0.0905
RRIRMRPPRLPRPRPRPIPRPRP | 0.634
RRIRARPPRLPRPRPRPNNGPRP | 0.00213
RRIRWRPPRLPRPRPRPKNLPRP | 0.0793
RRIRERPPRLPRPRPRPTVAPRP | 0.075
RRIRCRPPRLPRPRPRPPQFPRP | 0.695
RRIRVRPPRLPRPRPRPFEFPRP | -0.284
RRIRPRPPRLPRPRPRPGCGPRP | 0.514
RRIRFRPPRLPRPRPRPCIGPRP | -0.1
RRIRERPPRLPRPRPRPNGFPRP | 0.0354
RRIRWRPPRLPRPRPRPDLEPRP | 0.974
RRIRGRPPRLPRPRPRPLKLPRP | 0.164
RRIRDRPPRLPRPRPRPMSLPRP | -0.558
RRIRGRPPRLPRPRPRPMWRPRP | 0.899
RRIRWRPPRLPRPRPRPLYSPRP | -0.247
RRIRERPPRLPRPRPRPCCSPRP | -0.52
RRIRWRPPRLPRPRPRPNCWPRP | 0.533
RRIRQRPPRLPRPRPRPCGIPRP | -0.115
RRIRARPPRLPRPRPRPLTQPRP | 0.209
RRIRQRPPRLPRPRPRPFVKPRP | -0.234
RRIRARPPRLPRPRPRPEVMPRP | 0.28
RRIRVRPPRLPRPRPRPKDTPRP | -0.038
RRIRFRPPRLPRPRPRPHVFPRP | -0.136

Sequence | shrunken log2 fold change
RRIRYRPPRLPRPRPRPAPHPRP | -0.247
RRIRLRPPRLPRPRPRPTVNPRP | -0.119
RRIRERPPRLPRPRPRPQWCPRP | -0.262
RRIRIRPPRLPRPRPRPCHKPRP | -0.16
RRIRPRPPRLPRPRPRPCDQPRP | -0.758
RRIRQRPPRLPRPRPRPDFHPRP | 0.0254
RRIRKRPPRLPRPRPRPWCQPRP | -0.0158
RRIRFRPPRLPRPRPRPMESPRP | 0.0556
RRIRNRPPRLPRPRPRPEYYPRP | -0.0216
RRIRWRPPRLPRPRPRPTIMPRP | -0.0533
RRIRCRPPRLPRPRPRPCPTPRP | 0.0528
RRIRQRPPRLPRPRPRPRKMPRP | -0.0294
RRIRLRPPRLPRPRPRPEKMPRP | -0.35
RRIRNRPPRLPRPRPRPSHYPRP | -1.22
RRIRTRPPRLPRPRPRPFWAPRP | 0.346
RRIRYRPPRLPRPRPRPDGHPRP | -0.024
RRIRQRPPRLPRPRPRPTVLPRP | -0.0201
RRIRQRPPRLPRPRPRPMYVPRP | -0.0439
RRIRTRPPRLPRPRPRPWNPPRP | 0.0296
RRIRYRPPRLPRPRPRPKQKPRP | -0.0531
RRIRCRPPRLPRPRPRPKQNPRP | 0.136
RRIRHRPPRLPRPRPRPNKCPRP | -0.431
RRIRNRPPRLPRPRPRPRRLPRP | 2.6
RRIRSRPPRLPRPRPRPGEQPRP | 0.00836
RRIRQRPPRLPRPRPRPADYPRP | -0.155
